Measurements published in the supplement of paper PMC9876800.

Tested on: peptide library, one residue held at a place counted from the S/T acceptor
Experiment: relative phosphorylation of the sub-library (ratio to the mean residue at this position); higher = residue favoured
Conditions: human
In short: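 Relative sub-library phosphorylation is the ratio of each sub-library's signal to the mean residue at that position. The signal came from phosphorimaging of spots on streptavidin membranes, quantified by densitometry, after purified recombinant kinases reacted with biotinylated degenerate peptide sub-libraries in 384-well plates. Reactions held 50 μM peptide and 50 μM ATP spiked with γ-32P-ATP for 90 min under kinase-specific conditions.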

CDC7, construct: Full length, sequence (O00311 whole entry, looked up): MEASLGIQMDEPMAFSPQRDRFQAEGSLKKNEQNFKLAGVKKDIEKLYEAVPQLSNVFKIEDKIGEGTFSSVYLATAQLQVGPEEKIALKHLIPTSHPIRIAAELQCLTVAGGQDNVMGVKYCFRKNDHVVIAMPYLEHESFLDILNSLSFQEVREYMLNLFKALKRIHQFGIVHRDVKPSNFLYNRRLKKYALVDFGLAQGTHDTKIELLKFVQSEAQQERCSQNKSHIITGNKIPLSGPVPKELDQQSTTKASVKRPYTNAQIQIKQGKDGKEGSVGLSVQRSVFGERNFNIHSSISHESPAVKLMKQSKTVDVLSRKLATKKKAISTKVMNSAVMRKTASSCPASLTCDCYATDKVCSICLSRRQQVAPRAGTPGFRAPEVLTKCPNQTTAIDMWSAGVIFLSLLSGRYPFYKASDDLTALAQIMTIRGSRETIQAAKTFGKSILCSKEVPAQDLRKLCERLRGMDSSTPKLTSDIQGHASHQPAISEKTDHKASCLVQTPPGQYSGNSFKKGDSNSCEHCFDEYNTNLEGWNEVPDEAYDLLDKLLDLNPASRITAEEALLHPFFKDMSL
CSNK1G2, construct: aa43-353, sequence (P78368 43-353, looked up): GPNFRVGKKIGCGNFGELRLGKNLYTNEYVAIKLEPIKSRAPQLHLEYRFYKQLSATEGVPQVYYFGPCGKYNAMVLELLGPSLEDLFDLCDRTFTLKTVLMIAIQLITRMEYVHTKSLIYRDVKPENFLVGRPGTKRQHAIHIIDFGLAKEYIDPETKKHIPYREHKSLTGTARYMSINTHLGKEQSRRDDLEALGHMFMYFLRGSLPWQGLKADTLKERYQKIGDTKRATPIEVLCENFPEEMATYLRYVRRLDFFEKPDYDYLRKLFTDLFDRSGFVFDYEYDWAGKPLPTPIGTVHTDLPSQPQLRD
CDK1, construct: Full length, sequence (P06493 whole entry, looked up): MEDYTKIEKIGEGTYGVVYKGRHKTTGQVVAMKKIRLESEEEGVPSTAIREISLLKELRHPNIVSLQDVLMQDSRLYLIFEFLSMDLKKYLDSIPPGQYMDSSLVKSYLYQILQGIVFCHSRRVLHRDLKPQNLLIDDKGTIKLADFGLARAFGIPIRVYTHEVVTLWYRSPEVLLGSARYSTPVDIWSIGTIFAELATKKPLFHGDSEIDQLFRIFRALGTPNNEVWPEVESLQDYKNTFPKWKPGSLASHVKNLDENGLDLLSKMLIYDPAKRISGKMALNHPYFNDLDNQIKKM
CDK18, construct: Full length, sequence (Q07002 whole entry, looked up): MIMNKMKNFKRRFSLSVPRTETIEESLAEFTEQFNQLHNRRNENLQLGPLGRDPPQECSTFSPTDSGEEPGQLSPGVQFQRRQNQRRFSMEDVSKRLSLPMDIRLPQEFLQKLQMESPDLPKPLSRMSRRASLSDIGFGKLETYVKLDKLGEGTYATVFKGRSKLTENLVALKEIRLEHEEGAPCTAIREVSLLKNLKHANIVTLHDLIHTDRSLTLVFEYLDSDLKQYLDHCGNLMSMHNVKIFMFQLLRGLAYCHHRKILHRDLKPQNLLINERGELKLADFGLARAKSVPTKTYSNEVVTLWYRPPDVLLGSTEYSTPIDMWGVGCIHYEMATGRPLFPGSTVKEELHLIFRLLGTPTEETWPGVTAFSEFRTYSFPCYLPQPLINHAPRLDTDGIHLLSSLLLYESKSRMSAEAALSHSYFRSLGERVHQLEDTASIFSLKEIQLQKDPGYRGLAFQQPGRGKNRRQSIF

CDC7, construct: Full length (from UniProt O00311)
relative phosphorylation
Conditions	at +1	at +2	at +3	at +4	at -1	at -2	at -3	at -4	at -5
A fixed	0.668	1.31	0.87	0.939	1.13	1.05	0.87	0.99	1.26
D fixed	2.92	0.854	2.1	0.91	0.674	1.19	1.06	1.27	0.99
E fixed	4.74	0.689	1.03	0.832	0.819	1.13	1.15	1.04	0.856
F fixed	0.577	0.712	1.35	1.04	1.04	0.895	0.91	0.949	0.988
G fixed	0.629	1.69	1.37	1.02	1.11	0.778	1	0.929	0.934
H fixed	0.513	0.887	1.02	1.08	1	0.787	0.836	0.977	1.09
I fixed	0.549	0.834	0.864	1.01	0.485	1.07	0.849	0.82	0.93
K fixed	0.444	0.596	0.561	0.769	1.31	0.72	0.802	0.909	0.954
L fixed	0.563	1.02	0.874	0.984	0.982	1.4	0.933	0.943	0.926
M fixed	0.765	0.893	0.676	0.932	1.18	1.11	0.894	0.921	0.95
N fixed	0.691	1.13	0.897	0.878	0.884	0.715	0.888	0.955	0.979
P fixed	0.459	1.84	0.945	1.15	1.01	1.64	1.06	1.11	0.914
Q fixed	1.31	0.756	0.694	0.782	0.781	0.749	0.848	0.866	0.77
R fixed	0.472	0.816	0.506	0.723	1.11	1.06	1.65	0.907	1.06
V fixed	0.612	0.737	0.761	0.894	0.671	0.988	0.856	0.935	0.943
W fixed	0.567	1.44	1.23	1.48	1.59	0.854	1.33	1.36	1.28
Y fixed	0.523	0.796	1.25	1.58	1.23	0.884	1.06	1.12	1.18
pThr fixed	2.38	0.801	1.41	1.34	0.583	1.12	1.46	1.13	0.831
pTyr fixed	0.631	0.537	0.792	1.15	0.684	0.717	1.06	0.937	0.844

CDK1, construct: Full length (from UniProt P06493)
relative phosphorylation
Conditions	at +1	at +2	at +3	at +4	at -1	at -2	at -3	at -4	at -5
A fixed	0.334	1.04	0.598	0.854	0.927	1	0.841	0.996	1.04
D fixed	0.205	0.814	0.505	0.941	1.21	1.03	1.26	1.56	1.55
E fixed	0.231	0.724	0.425	0.786	0.927	0.898	1.25	1.38	1.36
F fixed	0.187	0.68	0.396	0.78	0.639	0.853	0.825	0.825	0.882
G fixed	0.717	1.13	0.852	1.1	1.43	1.29	1.31	1.14	1.4
H fixed	0.244	1.18	0.907	1.23	0.744	0.87	1.01	0.908	0.893
I fixed	0.21	0.694	0.346	0.758	0.352	0.669	0.663	0.654	0.751
K fixed	0.331	1.86	5.37	1.83	1.65	0.597	1.01	0.973	1.11
L fixed	0.228	0.752	0.403	0.792	0.62	0.89	0.743	0.69	0.799
M fixed	0.24	0.839	0.423	0.913	0.85	1.04	0.761	0.806	0.759
N fixed	0.299	1.19	0.838	1.12	1.27	0.803	1.11	1.01	0.944
P fixed	12.4	1.04	0.999	1.08	1.61	3.11	1.84	1.49	1.16
Q fixed	0.292	1.16	0.798	1.02	1.22	0.856	0.976	0.922	0.86
R fixed	0.324	1.64	2.82	1.21	1.4	0.649	0.921	1.02	0.934
V fixed	0.295	0.656	0.413	0.695	0.483	0.687	0.705	0.586	0.718
W fixed	0.213	0.769	0.485	0.973	0.758	0.935	0.883	1.05	0.852
Y fixed	0.202	0.842	0.415	0.924	0.897	0.825	0.893	0.985	0.99
pThr fixed	0.851	1.38	1.59	0.946	0.621	1.16	1.3	1.43	1.74
pTyr fixed	0.777	0.913	1.36	1.08	0.885	1.28	1.48	1.42	1.66

CDK18, construct: Full length (from UniProt Q07002)
relative phosphorylation
Conditions	at +1	at +2	at +3	at +4	at -1	at -2	at -3	at -4	at -5
A fixed	0.339	0.788	1.01	1.29	1.11	1.37	1.15	1.33	1.04
D fixed	0.148	0.632	0.364	0.521	0.489	0.384	0.605	0.835	0.919
E fixed	0.127	0.377	0.292	0.355	0.348	0.463	0.719	0.823	0.831
F fixed	0.196	0.581	1.03	0.759	0.57	0.705	0.539	0.696	0.844
G fixed	1.13	0.837	0.922	2.23	2.13	1.11	2.12	1.24	1.15
H fixed	0.274	1.23	0.695	1.21	0.987	0.807	1.05	1.02	1.37
I fixed	0.178	0.705	1.03	0.634	0.247	0.72	0.569	0.788	0.804
K fixed	0.316	2.28	0.862	1.33	1.67	0.671	0.937	1.48	1.53
L fixed	0.199	0.877	2.5	0.581	0.561	0.963	0.589	1	1.16
M fixed	0.196	0.901	1.46	0.699	0.934	0.887	0.648	0.718	0.799
N fixed	0.239	1.11	0.806	1.16	1.02	0.777	1.06	1.27	1.12
P fixed	12.4	0.972	2.05	0.831	1.71	3.93	2.29	1.43	1.12
Q fixed	0.279	1.06	1.03	0.969	1.13	0.999	1.03	1.01	0.77
R fixed	0.281	2.23	0.719	1.79	1.9	0.94	1.33	0.941	0.827
V fixed	0.263	0.744	1.04	0.703	0.379	0.852	0.768	0.596	0.677
W fixed	0.236	0.782	0.703	1.09	0.911	0.886	0.852	1.05	1.12
Y fixed	0.184	0.887	0.498	0.845	0.914	0.543	0.748	0.765	0.911
pThr fixed	0.415	0.681	0.949	0.372	0.316	0.823	0.982	0.951	0.78
pTyr fixed	0.508	0.48	0.815	0.591	0.341	0.572	0.943	0.82	1.07

CSNK1G2, construct: aa43-353 (from UniProt P78368)
relative phosphorylation
Conditions	at +1	at +2	at +3	at +4	at -1	at -2	at -3	at -4	at -5
A fixed	0.721	0.84	0.944	0.864	1.07	1.17	0.642	1.13	0.845
D fixed	0.589	0.43	1.14	1.31	1.52	1.2	4.54	1.46	2.48
E fixed	1	0.999	0.339	1.25	2.85	4.44	2.79	1.85	1.89
F fixed	0.973	1.33	1.29	0.996	0.834	0.524	0.55	0.896	0.82
G fixed	0.636	0.516	1.23	0.746	0.797	0.686	0.705	0.767	0.79
H fixed	0.986	1.21	1.59	0.806	0.904	0.682	0.652	0.861	0.886
I fixed	1.88	1.32	1.08	0.961	0.902	0.666	0.465	0.694	0.875
K fixed	0.517	0.942	0.54	0.702	0.774	0.659	0.891	0.877	0.968
L fixed	1.55	0.605	0.944	1	1.02	0.656	0.458	0.842	0.76
M fixed	1.36	1.3	1.09	1.03	0.484	0.594	0.561	0.817	0.799
N fixed	0.672	0.875	0.732	0.797	0.807	1.18	0.766	0.858	0.859
P fixed	0.44	0.537	0.738	0.947	0.965	0.876	0.577	1.05	0.745
Q fixed	0.592	0.618	0.61	0.936	1.03	1.04	0.707	1.03	1
R fixed	0.813	0.996	0.687	0.684	1.11	0.695	0.895	1.02	0.961
V fixed	1.94	1.46	1.29	1.17	0.766	0.813	0.44	0.733	0.686
W fixed	0.852	1.34	1.27	1.35	0.589	0.5	0.652	1.15	0.821
Y fixed	1.47	1.68	1.49	1.45	0.569	0.619	0.711	0.971	0.816
pThr fixed	1.33	1.36	2.58	3.98	3.89	9.46	62.6	8.08	4.7
pTyr fixed	2.52	5.33	19.2	6.91	2.93	6.96	8.28	6.71	6.32
